According to the supplement of paper PMC10065799, “High-throughput profiling of sequence recognition by tyrosine kinases and SH2 domains using bacterial peptide display” (eLife, 2023):

Columns and labels:
AncSZ = assay: phosphorylation enrichment, bacterial display (enrichment ratio); higher = better substrate or ligand; peptides without Tyr show the background
EPHB1 = EPHB1 (UniProt P54762); assay: as above
EPHB2 = EPHB2 (UniProt P29323); assay: as above
FGFR1 = FGFR1 (UniProt P11362); assay: as above
FGFR3 = FGFR3 (UniProt P22607); assay: as above
Fer (mouse) = assay: as above
Fes = Fes (UniProt P07332); assay: as above
Fyn = Fyn (UniProt P06241); assay: as above
Hck = Hck (UniProt P08631); assay: as above
Jak2 = Jak2 (UniProt O60674); assay: as above
MERTK = MERTK (UniProt Q12866); assay: as above
c-Abl (mouse) = assay: as above
c-Src = assay: as above
Grb2 SH2 = Grb2 SH2 (UniProt P62993); assay: SH2 binding enrichment of the phosphorylated peptide, bacterial display (enrichment ratio); higher = better substrate or ligand; peptides without Tyr show the background
SHP2-C SH2 = assay: as above
c-Src SH2 = assay: as above
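Wherever SH2 binding enrichment of the phosphorylated peptide, bacterial display is given: peptide library displayed on the E. coli surface as eCPX fusions, selected cells deep-sequenced, score is each peptide's frequency after selection divided by its frequency in the input.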
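Wherever phosphorylation enrichment, bacterial display is given: 11-residue human phosphosite peptides and single-mutation variants displayed on the E. coli surface, counted by deep sequencing, each peptide's frequency after selection divided by its frequency in the unselected input library; frequency after pTyr selection over input frequency; kinase dosed for 20-30% of maximal phosphorylation in three min.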

FGFR1, sequence (P11362 whole entry, looked up): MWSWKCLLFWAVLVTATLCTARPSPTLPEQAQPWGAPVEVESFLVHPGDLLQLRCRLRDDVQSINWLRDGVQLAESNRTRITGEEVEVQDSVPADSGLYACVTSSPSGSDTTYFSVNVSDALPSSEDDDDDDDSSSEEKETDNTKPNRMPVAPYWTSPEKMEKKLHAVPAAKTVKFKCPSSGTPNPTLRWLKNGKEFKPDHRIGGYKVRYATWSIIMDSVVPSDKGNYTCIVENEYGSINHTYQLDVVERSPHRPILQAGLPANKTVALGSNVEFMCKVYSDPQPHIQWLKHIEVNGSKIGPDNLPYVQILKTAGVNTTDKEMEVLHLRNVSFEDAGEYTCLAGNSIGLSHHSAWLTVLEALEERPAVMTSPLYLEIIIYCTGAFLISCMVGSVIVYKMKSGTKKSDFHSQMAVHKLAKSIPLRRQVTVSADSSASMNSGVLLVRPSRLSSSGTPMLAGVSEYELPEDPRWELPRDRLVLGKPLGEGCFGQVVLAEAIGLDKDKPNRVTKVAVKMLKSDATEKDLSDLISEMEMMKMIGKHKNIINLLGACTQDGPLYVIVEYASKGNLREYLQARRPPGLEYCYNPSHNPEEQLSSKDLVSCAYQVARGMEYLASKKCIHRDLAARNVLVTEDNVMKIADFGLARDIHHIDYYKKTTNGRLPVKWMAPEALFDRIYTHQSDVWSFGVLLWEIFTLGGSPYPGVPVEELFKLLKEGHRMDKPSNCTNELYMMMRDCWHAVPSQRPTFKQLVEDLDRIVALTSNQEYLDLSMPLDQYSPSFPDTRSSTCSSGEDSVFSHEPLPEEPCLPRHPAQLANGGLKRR
FGFR3, sequence (P22607 whole entry, looked up): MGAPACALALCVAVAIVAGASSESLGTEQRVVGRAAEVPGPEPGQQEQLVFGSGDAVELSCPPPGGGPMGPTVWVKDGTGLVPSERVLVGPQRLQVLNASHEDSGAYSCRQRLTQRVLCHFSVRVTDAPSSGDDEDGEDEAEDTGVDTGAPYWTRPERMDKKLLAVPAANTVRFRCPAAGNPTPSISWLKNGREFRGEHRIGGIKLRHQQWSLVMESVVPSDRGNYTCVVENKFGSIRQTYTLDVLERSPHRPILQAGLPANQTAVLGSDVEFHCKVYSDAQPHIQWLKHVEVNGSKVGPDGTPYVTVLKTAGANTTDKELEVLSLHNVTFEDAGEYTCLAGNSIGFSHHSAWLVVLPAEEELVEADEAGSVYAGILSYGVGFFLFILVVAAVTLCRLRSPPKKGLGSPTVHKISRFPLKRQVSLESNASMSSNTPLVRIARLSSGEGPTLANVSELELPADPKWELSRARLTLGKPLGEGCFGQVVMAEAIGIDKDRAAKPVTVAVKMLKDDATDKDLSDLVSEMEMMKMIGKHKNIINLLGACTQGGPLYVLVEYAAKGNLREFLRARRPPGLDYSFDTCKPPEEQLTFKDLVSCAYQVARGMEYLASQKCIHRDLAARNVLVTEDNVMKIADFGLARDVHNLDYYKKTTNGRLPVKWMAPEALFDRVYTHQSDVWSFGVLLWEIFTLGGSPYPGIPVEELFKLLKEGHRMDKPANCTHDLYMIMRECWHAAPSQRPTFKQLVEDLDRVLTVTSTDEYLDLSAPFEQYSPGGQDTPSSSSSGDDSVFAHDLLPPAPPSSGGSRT
Fyn, sequence (P06241 whole entry, looked up): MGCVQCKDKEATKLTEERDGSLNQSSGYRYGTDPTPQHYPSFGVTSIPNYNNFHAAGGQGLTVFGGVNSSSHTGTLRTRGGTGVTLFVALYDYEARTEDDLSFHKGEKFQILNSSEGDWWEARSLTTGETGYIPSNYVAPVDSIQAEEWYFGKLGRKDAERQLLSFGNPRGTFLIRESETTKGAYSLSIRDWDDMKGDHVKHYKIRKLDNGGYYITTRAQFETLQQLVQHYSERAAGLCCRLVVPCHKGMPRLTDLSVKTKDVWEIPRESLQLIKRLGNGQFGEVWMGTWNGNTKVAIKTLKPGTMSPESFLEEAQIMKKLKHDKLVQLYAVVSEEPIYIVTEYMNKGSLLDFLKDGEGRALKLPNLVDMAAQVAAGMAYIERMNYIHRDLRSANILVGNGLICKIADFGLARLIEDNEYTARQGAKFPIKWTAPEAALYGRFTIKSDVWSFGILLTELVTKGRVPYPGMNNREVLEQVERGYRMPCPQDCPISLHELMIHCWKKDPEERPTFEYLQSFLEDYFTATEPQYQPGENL
EPHB1, sequence (P54762 whole entry, looked up): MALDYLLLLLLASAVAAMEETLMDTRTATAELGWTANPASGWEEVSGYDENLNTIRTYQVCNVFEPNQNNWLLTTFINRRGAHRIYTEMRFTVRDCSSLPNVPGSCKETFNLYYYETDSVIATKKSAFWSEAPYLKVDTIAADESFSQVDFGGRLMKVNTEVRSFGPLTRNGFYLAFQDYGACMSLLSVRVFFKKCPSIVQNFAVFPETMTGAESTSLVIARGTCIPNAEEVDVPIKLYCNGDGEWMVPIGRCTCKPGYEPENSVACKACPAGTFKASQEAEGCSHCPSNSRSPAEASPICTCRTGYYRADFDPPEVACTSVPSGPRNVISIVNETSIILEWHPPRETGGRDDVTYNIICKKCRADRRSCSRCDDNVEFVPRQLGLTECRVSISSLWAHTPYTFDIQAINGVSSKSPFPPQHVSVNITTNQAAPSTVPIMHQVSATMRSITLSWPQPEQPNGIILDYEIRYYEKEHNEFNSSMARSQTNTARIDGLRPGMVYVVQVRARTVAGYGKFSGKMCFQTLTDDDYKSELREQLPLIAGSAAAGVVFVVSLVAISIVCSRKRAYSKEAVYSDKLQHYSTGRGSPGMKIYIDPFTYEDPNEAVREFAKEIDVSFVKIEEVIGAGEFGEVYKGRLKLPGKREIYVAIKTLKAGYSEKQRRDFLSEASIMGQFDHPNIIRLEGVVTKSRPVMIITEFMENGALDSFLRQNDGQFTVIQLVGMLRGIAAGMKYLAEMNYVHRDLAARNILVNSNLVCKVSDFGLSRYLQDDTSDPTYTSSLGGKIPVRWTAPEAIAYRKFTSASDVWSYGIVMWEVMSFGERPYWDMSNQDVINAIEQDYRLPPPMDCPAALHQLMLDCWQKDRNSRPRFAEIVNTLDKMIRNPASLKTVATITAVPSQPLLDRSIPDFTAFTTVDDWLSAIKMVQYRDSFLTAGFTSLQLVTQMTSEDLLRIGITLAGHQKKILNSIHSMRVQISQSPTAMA
Fes, sequence (P07332 whole entry, looked up): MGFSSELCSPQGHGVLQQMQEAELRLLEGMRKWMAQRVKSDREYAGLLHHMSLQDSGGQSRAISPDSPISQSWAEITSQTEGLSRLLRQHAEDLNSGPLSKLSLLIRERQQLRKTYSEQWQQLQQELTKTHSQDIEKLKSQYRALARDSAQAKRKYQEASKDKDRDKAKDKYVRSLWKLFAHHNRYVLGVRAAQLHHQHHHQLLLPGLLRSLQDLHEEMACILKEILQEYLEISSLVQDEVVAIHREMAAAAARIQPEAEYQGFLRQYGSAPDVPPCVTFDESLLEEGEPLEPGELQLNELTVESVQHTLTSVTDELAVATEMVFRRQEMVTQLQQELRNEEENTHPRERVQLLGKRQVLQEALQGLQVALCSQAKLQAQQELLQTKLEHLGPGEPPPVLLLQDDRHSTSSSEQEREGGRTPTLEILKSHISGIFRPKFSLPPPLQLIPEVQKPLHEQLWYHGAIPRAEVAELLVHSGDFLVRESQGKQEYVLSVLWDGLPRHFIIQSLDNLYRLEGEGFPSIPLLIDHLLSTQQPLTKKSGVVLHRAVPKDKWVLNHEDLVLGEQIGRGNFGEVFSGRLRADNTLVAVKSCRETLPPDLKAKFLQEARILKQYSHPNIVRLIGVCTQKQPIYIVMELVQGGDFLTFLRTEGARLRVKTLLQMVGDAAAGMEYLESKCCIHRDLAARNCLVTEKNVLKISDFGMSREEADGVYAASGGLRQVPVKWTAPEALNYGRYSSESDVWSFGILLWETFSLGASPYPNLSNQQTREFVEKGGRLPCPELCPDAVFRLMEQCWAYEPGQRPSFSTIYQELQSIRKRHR
Hck, sequence (P08631 whole entry, looked up): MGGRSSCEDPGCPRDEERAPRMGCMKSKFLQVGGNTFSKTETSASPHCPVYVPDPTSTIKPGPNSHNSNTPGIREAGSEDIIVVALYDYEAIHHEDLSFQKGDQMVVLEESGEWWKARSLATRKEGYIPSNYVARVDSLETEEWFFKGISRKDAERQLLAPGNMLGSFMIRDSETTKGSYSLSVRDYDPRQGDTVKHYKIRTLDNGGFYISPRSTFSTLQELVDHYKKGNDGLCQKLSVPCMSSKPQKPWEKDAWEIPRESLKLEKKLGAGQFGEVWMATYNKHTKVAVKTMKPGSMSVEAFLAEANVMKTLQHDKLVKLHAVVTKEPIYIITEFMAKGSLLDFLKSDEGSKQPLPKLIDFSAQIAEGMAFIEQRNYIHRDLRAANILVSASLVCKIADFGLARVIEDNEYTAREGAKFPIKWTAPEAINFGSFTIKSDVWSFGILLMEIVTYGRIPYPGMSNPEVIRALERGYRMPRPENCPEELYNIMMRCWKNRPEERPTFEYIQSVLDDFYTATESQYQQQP

| Sequence | SH2 binding enrichment (Grb2 SH2) | SH2 binding enrichment (SHP2-C SH2) | SH2 binding enrichment (c-Src SH2) | phosphorylation enrichment (AncSZ) | phosphorylation enrichment (EPHB1) | phosphorylation enrichment (EPHB2) | phosphorylation enrichment (FGFR1) | phosphorylation enrichment (FGFR3) | phosphorylation enrichment (Fer (mouse)) | phosphorylation enrichment (Fes) | phosphorylation enrichment (Fyn) | phosphorylation enrichment (Hck) | phosphorylation enrichment (Jak2) | phosphorylation enrichment (MERTK) | phosphorylation enrichment (c-Abl (mouse)) | phosphorylation enrichment (c-Src) |
| --- | --- | --- | --- | --- | --- | --- | --- | --- | --- | --- | --- | --- | --- | --- | --- | --- |
| PRPAGYPSTVS [CACNA1C_Y1832] | 1 | 0.621 | 0.484 | 0.458 | 0.327 | 0.413 | 0.333 | 0.446 | 0.331 | 0.493 | 0.43 | 0.251 | 0.55 | 0.363 | 0.653 | 0.735 |
| ANNPLYKEATS [ITGB3_Y773] | 1.04 | 0.913 | 0.53 | 0.395 | 0.363 | 0.499 | 0.349 | 0.379 | 0.228 | 0.53 | 0.343 | 0.385 | 0.406 | 0.316 | 0.635 | 0.3 |
| RLQAAYNLVKR [PFKM_Y103_R100Q] | 1.86 | 2.08 | 1.51 | 0.787 | 0.59 | 0.388 | 0.525 | 0.489 | 0.494 | 1.19 | 0.731 | 0.633 | 0.866 | 0.541 | 0.853 | 0.526 |
| ASKEPYFVRCI [MYO1D_Y585_YF] | 0.904 | 0.448 | 0.398 | 1.38 | 0.762 | 0.734 | 0.449 | 0.93 | 0.569 | 1.77 | 0.622 | 0.659 | 1.22 | 0.574 | 0.938 | 0.611 |
| PELINYHQPNS [BTK_Y361_H364P] | 1.07 | 0.763 | 0.704 | 0.928 | 1.04 | 0.727 | 0.723 | 0.857 | 0.678 | 0.908 | 0.597 | 0.734 | 0.829 | 0.657 | 0.574 | 0.8 |
| AFSLKYEQQTQ [SYTL4_Y366] | 1.09 | 0.67 | 0.587 | 1.03 | 0.694 | 0.624 | 0.53 | 0.841 | 0.719 | 1.21 | 0.437 | 0.535 | 0.982 | 0.491 | 0.564 | 0.364 |
| LLAGLYRGQAL [FGFR4_Y390] | 0.63 | 0.882 | 0.508 | 0.857 | 0.433 | 0.594 | 0.459 | 0.526 | 0.683 | 0.833 | 0.494 | 0.571 | 0.72 | 0.553 | 0.591 | 0.452 |
| HSLLQYGGSAN [ANK1_Y624_R619H] | 0.862 | 0.661 | 0.367 | 0.579 | 0.421 | 0.583 | 0.316 | 0.531 | 0.447 | 0.481 | 0.427 | 0.505 | 0.394 | 0.386 | 0.472 | 0.357 |
| QLATEYVFSDF [PANX1_Y10] | 0.895 | 0.679 | 0.511 | 0.996 | 0.615 | 0.62 | 0.716 | 1.21 | 0.424 | 1.85 | 0.762 | 0.703 | 1.57 | 0.617 | 0.907 | 0.837 |
| TEQDPYNSIVR [MMUT_Y364_N366S] | 0.952 | 0.711 | 1.48 | 1.03 | 0.496 | 0.616 | 0.697 | 0.665 | 0.488 | 1.01 | 0.494 | 0.551 | 0.889 | 0.4 | 0.661 | 0.593 |
| SSVPDYLAAVD [GLB1_Y154_D151V] | 0.774 | 0.816 | 0.523 | 1.63 | 0.631 | 0.683 | 0.534 | 1.17 | 0.568 | 1.19 | 0.582 | 0.517 | 1.11 | 0.463 | 0.801 | 0.381 |
| LLSVAYQNVVG [YWHAG_Y49_K50Q] | 21.1 | 2.77 | 2.53 | 1.23 | 1.19 | 1.07 | 1.34 | 1.08 | 0.83 | 1.25 | 0.757 | 0.632 | 1.22 | 0.519 | 0.832 | 0.443 |
| ITVCDYTNPCT [MYD88_Y276] | 0.968 | 0.603 | 0.701 | 1.66 | 0.583 | 0.691 | 0.521 | 0.719 | 0.395 | 1.02 | 0.401 | 0.415 | 1.11 | 0.426 | 0.651 | 1.26 |
| EATKGHLDDPT [G6PD_Y322_Y322H] | 0.815 | 0.6 | 0.598 | 0.851 | 0.643 | 0.488 | 0.467 | 0.664 | 0.55 | 1.04 | 0.584 | 0.496 | 0.856 | 0.448 | 0.821 | 0.453 |
| NHFKIYNLFAE [PTEN_Y68_C71Y_YF] | – | – | – | 1.14 | 0.931 | 1.14 | 0.933 | 1.36 | 0.946 | 1.33 | 2.73 | 1.53 | 0.612 | 0.329 | 0.573 | 1.64 |

More lines, main results first:

| SH2 binding enrichment (Grb2 SH2) | SH2 binding enrichment (SHP2-C SH2) | SH2 binding enrichment (c-Src SH2) | Sequence | phosphorylation enrichment (AncSZ) | phosphorylation enrichment (EPHB1) | phosphorylation enrichment (EPHB2) | phosphorylation enrichment (FGFR1) | phosphorylation enrichment (FGFR3) | phosphorylation enrichment (Fer (mouse)) | phosphorylation enrichment (Fes) | phosphorylation enrichment (Fyn) | phosphorylation enrichment (Hck) | phosphorylation enrichment (Jak2) | phosphorylation enrichment (MERTK) | phosphorylation enrichment (c-Abl (mouse)) | phosphorylation enrichment (c-Src) |
| --- | --- | --- | --- | --- | --- | --- | --- | --- | --- | --- | --- | --- | --- | --- | --- | --- |
| 5.31 | 0.986 | 0.796 | RLNAIYQNNLT [GSR_Y158] | 0.813 | 0.632 | 0.609 | 0.502 | 0.665 | 1.06 | 0.75 | 0.772 | 1.25 | 0.565 | 0.414 | 0.539 | 1.08 |
| 0.691 | 0.621 | 0.416 | IPPRRYFCSGV [STAMBP_Y36_R38C] | 0.642 | 0.342 | 0.466 | 0.428 | 0.447 | 0.403 | 0.739 | 0.478 | 0.464 | 0.667 | 0.432 | 0.593 | 0.393 |
| 0.782 | 0.763 | 0.484 | AHAGEHGAEAL [HBA1_Y25_Y25H] | 0.521 | 0.378 | 0.439 | 0.476 | 0.451 | 0.419 | 0.703 | 0.354 | 0.479 | 0.491 | 0.382 | 0.454 | 0.461 |
| 0.774 | 0.69 | 0.483 | AEEEIYGEFEA [Src_opt_1995] | 1.51 | 0.808 | 0.75 | 0.694 | 1 | 0.923 | 1.49 | 1.26 | 1.12 | 1.29 | 0.58 | 0.97 | 1.14 |
| 0.985 | 2.14 | 0.649 | GGMTEYKLVVV [KRAS_Y4] | 0.852 | 0.514 | 0.569 | 1.01 | 0.776 | 0.423 | 0.929 | 0.488 | 0.446 | 0.685 | 0.368 | 0.539 | 0.369 |
| 0.887 | 0.608 | 0.565 | DKATEYIQFMR [MAX_Y70_YF] | 1 | 0.528 | 0.549 | 0.589 | 0.655 | 0.439 | 1.01 | 0.675 | 0.69 | 0.793 | 0.439 | 0.803 | 0.703 |
| 1.21 | 1.66 | 1.5 | AHPIIYTIIEA [PYKtide_no-pT_2014] | 0.892 | 5.42 | 1.3 | 1.57 | 1.44 | 3.1 | 1.21 | 3.29 | 2.74 | 0.838 | 7.03 | 1.85 | 3.47 |
| 0.826 | 0.657 | 0.483 | DHPSEYAARQL [ANXA13_Y90_R86H] | 0.657 | 0.352 | 0.494 | 0.496 | 0.445 | 0.365 | 0.633 | 0.454 | 0.525 | 0.576 | 0.453 | 0.66 | 0.482 |
| 0.908 | 0.462 | 0.382 | FENGEYIIRQG [PRKG1_Y247_YF] | 1.01 | 0.543 | 0.464 | 0.499 | 0.69 | 0.557 | 1.07 | 0.572 | 0.565 | 0.92 | 0.427 | 0.653 | 0.591 |
| 0.722 | 0.559 | 0.461 | AVAFLYYKSIG [ADGRL4_Y301_V300L] | 1.09 | 0.555 | 0.54 | 0.566 | 0.796 | 0.46 | 1.42 | 0.417 | 0.518 | 1.24 | 0.469 | 1.07 | 0.459 |
| 0.872 | 0.79 | 0.493 | AHAGEYGVEAL [HBA1_Y25_A27V] | 0.83 | 0.492 | 0.631 | 0.499 | 0.678 | 0.448 | 0.9 | 0.525 | 0.547 | 0.793 | 0.422 | 0.595 | 0.402 |
| 1.83 | 1.28 | 1.49 | LLIVEYAKYGS [RET_Y806] | 1.52 | 1.12 | 0.872 | 0.804 | 0.942 | 0.868 | 2.4 | 0.622 | 0.759 | 1.82 | 0.75 | 1.03 | 1.23 |
| 1.08 | 0.462 | 0.6 | LLDGEYFTLQI [TP53_Y327_P322L] | 5.89 | 1.95 | 1.49 | 10.9 | 8.15 | 1.99 | 5.59 | 3.2 | 2.24 | 8.38 | 1.28 | 3.69 | 7.23 |
| 1.19 | 1.06 | 0.749 | RKNAKYLLKGE [CDH5_Y82] | 0.779 | 0.848 | 0.821 | 0.712 | 0.545 | 0.666 | 1.37 | 0.64 | 0.577 | 0.827 | 0.718 | 0.901 | 0.687 |
